Target: sACE2_(2).v2.4-IgG1 (human) (UniProt Q9BYF1)
Test: BLI

Substance	Kd [nM]	koff [s⁻¹]
SARS-CoV-2 RBD-8h N501Y (from UniProt P0DTC2 333-529) (domain or fragment)	< 0.1	
SARS-CoV-2 RBD-8h Y449K (from UniProt P0DTC2 333-529) (domain or fragment)		0.004

Reference: publication PMC7781310
